Measurements: patent US20240132578A1

What was measured:
Assay in all cases: cell-based or functional assay
[1] = biological target: HIV-1 Env of isolate MGRM-A-003 (pseudovirus) (HIV-1)
[2] = biological target: HIV-1 Env of isolate MGRM-AG-012 (subtype AG) (HIV-1)
[3] = biological target: HIV-1 Env of isolate MGRM-A-007 (subtype A) (HIV-1)
[4] = biological target: HIV-1 92TH021 envelope protein (Env) on pseudovirus (HIV-1)
[5] = biological target: HIV-1 JR-CSF Env K421A (HIV-1 (isolate JR-CSF)) (UniProt P20871)
[6] = biological target: HIV-1 JR-CSF Env I415A (HIV-1 (isolate JR-CSF)) (UniProt P20871)
[7] = biological target: HIV-1 Env of isolate MGRM-D-029 (HIV-1)
[8] = biological target: HIV-1 CMU02 envelope protein (Env) on pseudovirus (HIV-1)
[9] = biological target: HIV-1 Env of isolate MGRM-Chronic-B-001 (HIV-1)
[10] = biological target: HIV-1 MGRM-C-026 Env (HIV-1)
[11] = biological target: HIV-1 Env of isolate MGRM-F1-021 (HIV-1)
[12] = biological target: HIV-1 Env of pseudovirus isolate MGRM-C-020 (clade C) (HIV-1)
[13] = biological target: HIV-1 Env of isolate MGRM-D-005 (pseudovirus) (HIV-1)
[14] = biological target: HIV-1 Env of isolate MGRM-Chronic-B-002 (HIV-1)
[15] = biological target: HIV-1 92UG005 Env (HIV-1)
[16] = biological target: HIV-1 MGRM-D-001 envelope protein (Env) on pseudovirus (HIV-1)
[17] = biological target: HIV-1 Env of isolate MGRM-AE-001 (subtype AE) (HIV-1)
[18] = biological target: HIV-1 Env of pseudovirus isolate MGRM-C-010 (clade C) (HIV-1)
[19] = biological target: HIV-1 envelope glycoprotein (Env) of isolate MGRM-AE-003, subtype AE (HIV-1)
[20] = biological target: HIV-1 envelope glycoprotein (Env) of isolate MGRM-Chronic-B-023, on pseudovirus (HIV-1)
[21] = biological target: HIV-1 envelope glycoprotein (Env) of isolate MG RM-A-014, subtype A (HIV-1)
[22] = biological target: HIV-1 envelope glycoprotein (Env) of isolate MGRM-Chronic-B-003, on pseudovirus (HIV-1)
[23] = biological target: HIV-1 Env of isolate MGRM-AG-001 (pseudovirus) (HIV-1)
[24] = biological target: HIV-1 Env of isolate MGRM-AG-009 (pseudovirus) (HIV-1)
[25] = biological target: HIV-1 envelope glycoprotein (Env) of isolate MGRM-Chronic-B-008, on pseudovirus (HIV-1)
[26] = biological target: HIV-1 Env of pseudovirus MGRM-F1-010 (clade F) (HIV-1)
[27] = biological target: HIV-1 Env of isolate APV_6, clade B (HIV-1)
[28] = biological target: HIV-1 envelope glycoprotein (Env) of isolate MGRM-C-022 (HIV-1)
[29] = biological target: HIV-1 Env of isolate MGRM-D-026 (clade D pseudovirus) (HIV-1)
[30] = biological target: HIV-1 92RW020 envelope (Env) on pseudovirus (HIV-1)
[31] = biological target: HIV-1 Env of pseudovirus MGRM-F1-012 (clade F) (HIV-1)
[32] = biological target: HIV-1 Env of isolate 94UG103 (Clade A) (HIV-1)

Substance	IC50 (µg/mL), pseudovirus neutralization [1]	IC50, pseudovirus neutralization [2]	IC50, pseudovirus neutralization [3]	IC50 (ug/mL), pseudovirus neutralization [4]	Fold IC50 increase relative to wild-type (pseudovirus neutralization) [5]	Fold IC50 increase relative to wild-type (pseudovirus neutralization) [6]	IC50 (µg/mL), pseudovirus neutralization [7]	IC50 (ug/mL), pseudovirus neutralization [8]	IC50 (µg/mL), pseudovirus neutralization [9]	IC50, pseudovirus neutralization [10]	IC50 (µg/mL), pseudovirus neutralization [11]	IC50, pseudovirus neutralization [12]	IC50 (µg/mL), pseudovirus neutralization [13]	IC50 (µg/mL), pseudovirus neutralization [14]	IC50, pseudovirus neutralization [15]	IC50 (ug/mL), pseudovirus neutralization [16]	IC50, pseudovirus neutralization [17]	IC50, pseudovirus neutralization [18]	IC50, pseudovirus neutralization [19]	IC50 (µg/mL), pseudovirus neutralization [23]	also measured
5147_N06 (PGT-130) (antibody)	> 50 µg/mL	> 50 µg/mL	> 50 µg/mL	0.0082 µg/mL	2.9 fold	0.6 fold	> 50 µg/mL	> 10 µg/mL	> 50 µg/mL	0.0173 µg/mL	> 50 µg/mL	> 50 µg/mL	> 50 µg/mL	> 50 µg/mL	0.474 µg/mL	> 10 µg/mL	1 µg/mL	> 50 µg/mL			
5123_A06 (PGT-125) (antibody)				0.0066 µg/mL	1.2 fold	0.3 fold		> 10 µg/mL		0.0106 µg/mL					> 10 µg/mL	2.31 µg/mL			0.092 µg/mL	> 50 µg/mL	IC50, pseudovirus neutralization [20]: > 50 µg/mL; IC50, pseudovirus neutralization [21]: 13.9 µg/mL; IC50, pseudovirus neutralization [22]: 0.157 µg/mL; IC50 (µg/mL), pseudovirus neutralization [24]: 0.026 µg/mL; IC50, pseudovirus neutralization [25]: > 50 µg/mL
5345_I01 (PGT-137) (antibody)	> 50 µg/mL	> 50 µg/mL	> 50 µg/mL				> 50 µg/mL		> 50 µg/mL		> 50 µg/mL	> 50 µg/mL	> 50 µg/mL	> 50 µg/mL			> 50 µg/mL	> 50 µg/mL			
5141_B17 (PGT-126) (antibody)				0.115 µg/mL	0.7 fold	0.3 fold		> 10 µg/mL		0.0076 µg/mL					0.0181 µg/mL	0.0639 µg/mL			> 50 µg/mL	> 50 µg/mL	IC50, pseudovirus neutralization [20]: > 50 µg/mL; IC50, pseudovirus neutralization [21]: 0.01 µg/mL; IC50, pseudovirus neutralization [22]: 0.041 µg/mL; IC50 (µg/mL), pseudovirus neutralization [24]: 0.03 µg/mL; IC50, pseudovirus neutralization [25]: 5.89 µg/mL
5329_C19 (PGT-136) (antibody)	> 50 µg/mL	> 50 µg/mL	> 50 µg/mL	> 10 µg/mL			> 50 µg/mL	> 10 µg/mL	> 50 µg/mL		> 50 µg/mL	> 50 µg/mL	> 50 µg/mL	> 50 µg/mL		> 10 µg/mL	> 50 µg/mL	> 50 µg/mL			
4877_D15 (PGT-122) (antibody)				> 10 µg/mL				> 10 µg/mL		0.0089 µg/mL					> 10 µg/mL	0.867 µg/mL			> 50 µg/mL	14.5 µg/mL	IC50, pseudovirus neutralization [20]: 0.01 µg/mL; IC50, pseudovirus neutralization [21]: 0.007 µg/mL; IC50, pseudovirus neutralization [22]: 0.008 µg/mL; IC50 (µg/mL), pseudovirus neutralization [24]: 0.128 µg/mL; IC50, pseudovirus neutralization [25]: 0.017 µg/mL
5343_B08 (PGT-135) (antibody)	> 50 µg/mL	41.9 µg/mL	> 50 µg/mL	> 10 µg/mL	0.3 fold	5 fold	30.8 µg/mL	> 10 µg/mL	> 50 µg/mL		0.065 µg/mL	> 50 µg/mL	> 50 µg/mL	> 50 µg/mL		> 10 µg/mL	> 50 µg/mL	> 50 µg/mL			
5114_A19 (PGT-128) (antibody)	> 50 µg/mL	> 50 µg/mL	> 50 µg/mL		2 fold	0.7 fold	> 50 µg/mL		> 50 µg/mL		> 50 µg/mL	5.85 µg/mL	0.051 µg/mL	0.036 µg/mL			0.069 µg/mL	> 50 µg/mL			
1496_C09 (PG9) (TCN-109) (antibody)				0.103 µg/mL						0.113 µg/mL										17.1 µg/mL	IC50 [26]: 0.03 µg/mL; IC50 (µg/ml), pseudovirus neutralization [27]: 0.12 µg/mL; IC50 (µg/ml), pseudovirus neutralization [28]: 0.19 µg/mL; IC50, pseudovirus neutralization [29]: 17.5 µg/mL; neutralization IC50 [30]: 0.0637 µg/mL; IC50 [31]: 0.01 µg/mL; IC90 (neutralization of pseudovirus) [32]: 3.37 µg/mL
PGV04 (antibody)											0.031 µg/mL									0.218 µg/mL	IC50 (µg/mL), pseudovirus neutralization [24]: 0.148 µg/mL
5136_H01 (PGT-131) (antibody)	> 50 µg/mL	> 50 µg/mL	> 50 µg/mL		11 fold	0.6 fold	> 50 µg/mL		> 50 µg/mL		> 50 µg/mL	> 50 µg/mL	> 50 µg/mL	> 50 µg/mL			4.8 µg/mL	> 50 µg/mL			
5145_B14 (PGT-127) (antibody)					1.5 fold	2.1 fold													> 50 µg/mL	> 50 µg/mL	IC50, pseudovirus neutralization [20]: > 50 µg/mL; IC50, pseudovirus neutralization [21]: 0.04 µg/mL; IC50, pseudovirus neutralization [22]: 0.12 µg/mL; IC50 (µg/mL), pseudovirus neutralization [24]: 0.059 µg/mL; IC50, pseudovirus neutralization [25]: 21.5 µg/mL
4838_L06 (PGT-121) (antibody)				> 10 µg/mL				> 10 µg/mL							> 10 µg/mL				> 50 µg/mL		IC50, pseudovirus neutralization [20]: 0.005 µg/mL; IC50, pseudovirus neutralization [21]: 0.003 µg/mL; IC50, pseudovirus neutralization [22]: 0.011 µg/mL; IC50, pseudovirus neutralization [25]: 0.007 µg/mL
4858_P08 (PGT-123) (antibody)				> 10 µg/mL	0.9 fold	0.4 fold		> 10 µg/mL		0.0031 µg/mL					2.49 µg/mL	0.215 µg/mL			> 50 µg/mL	2.51 µg/mL	IC50, pseudovirus neutralization [20]: 0.055 µg/mL; IC50, pseudovirus neutralization [21]: 0.003 µg/mL; IC50, pseudovirus neutralization [22]: 0.008 µg/mL; IC50 (µg/mL), pseudovirus neutralization [24]: 0.073 µg/mL; IC50, pseudovirus neutralization [25]: 0.01 µg/mL
